From patent US10400024B2, “Cleavage and exchange of major histocompatibility complex ligands employing azobenzene-containing peptides” (priority 2014, dated 2019)
Entries after “also recorded” stand apart in the source; their conditions may differ.

Legend:
[1] = assay type: physicochemical
HLA-A*02:01 = HLA-A*02:01 (Homo sapiens, UniProt P04439, D140Y/D185E/D98H/E176V/E277Q/G131W/G231S/I119V/I121R/I166T/I218V/L300P/L318F/N151K/N90K/P208A/P217A/Q86G/Q94H/R138H/R169H/T345S); settings: cited from earlier work
PBMCs (CD8+ cells) = test: Cell viability assay with sodium dithionite (Annexin V, LIVE/DEAD, flow cytometry); assay type: cell-based, human; settings: 10 mM, 16 hours exposure; primary and cultured cells
Experimental: 10^6 freshly isolated PBMCs from healthy volunteers were incubated in 1 ml RPMI 1640 culture media containing HEPES-buffered 1 mM to 100 mM sodium dithionite (pH 7.4) at 37° C., 5% CO2. After 1-hour or 16-hour incubation, the cells were immediately assessed for cell viability or rested overnight in fresh media (for 1-hour treatment only). The cells were harvested, washed with PBS twice and stained with cell viability LIVE/DEAD® fixable near-IR stain (Molecular Probes®). The cells were then washed again with PBS and stained with anti-human CD8 (Clone RPA-T8; BioLegend) Brilliant Violet 421™ antibodies for 15 minutes. Thereafter, the cells were washed once with PBS and once with 1× Annexin V binding buffer (10 mM HEPES, pH 7.4; 140 mM NaCl; 2.5 mM CaCl2) prior to incubation with Annexin V FITC (eBioscience) for 10 minutes. The stained cells were immediately analyzed on BD LSRII flow cytometer and data were processed using FlowJo (Tree Star).

| Compound | known binder class to HLA-A*02:01 (HLA-A*02:01) | also measured |
| --- | --- | --- |
| SIIPSGPLK [Peptide 10] |  | epitope modification after oxidative conditions ([1]; 0.3 mM sodium periodate, RT, 2 hours): cleaved the N-terminal Ser; also recorded: N-terminal serine of 10 was cleaved; epitope modification in PBS ([1]; PBS control incubation): unmodified |
| ALQLLLEV | intermediate- |  |
| SLENFRAYV | intermediate- |  |
| VMLRWGVLA | intermediate- |  |
| O=S([O-])S(=O)[O-].[Na+].[Na+] [dithionite, sodium dithionite] |  | apoptosis or cell death of cells exposed to buffered dithionite (PBMCs (CD8+ cells)): little sign of apoptosis or cell death |
| NMLSTVLGV | high-affinity |  |
